For assay [1], the target named is T1, GST-PP2C30 (rice, UniProt Q84JI0 1-404).
T1 sequence: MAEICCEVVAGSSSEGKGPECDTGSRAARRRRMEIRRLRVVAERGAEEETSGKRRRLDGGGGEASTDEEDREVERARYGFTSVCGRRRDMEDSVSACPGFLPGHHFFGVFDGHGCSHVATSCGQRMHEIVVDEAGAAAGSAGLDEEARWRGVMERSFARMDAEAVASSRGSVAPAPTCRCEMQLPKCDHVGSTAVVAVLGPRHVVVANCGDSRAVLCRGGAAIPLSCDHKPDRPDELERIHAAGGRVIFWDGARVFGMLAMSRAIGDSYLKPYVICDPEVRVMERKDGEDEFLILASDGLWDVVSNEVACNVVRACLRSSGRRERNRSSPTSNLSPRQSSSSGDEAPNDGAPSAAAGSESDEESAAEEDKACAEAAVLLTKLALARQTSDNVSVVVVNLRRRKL
Nature of the assay: pull-down.

Assay [2] addresses T2, GST-PP2C51 (rice, UniProt Q65XK7 1-381).
T2 sequence: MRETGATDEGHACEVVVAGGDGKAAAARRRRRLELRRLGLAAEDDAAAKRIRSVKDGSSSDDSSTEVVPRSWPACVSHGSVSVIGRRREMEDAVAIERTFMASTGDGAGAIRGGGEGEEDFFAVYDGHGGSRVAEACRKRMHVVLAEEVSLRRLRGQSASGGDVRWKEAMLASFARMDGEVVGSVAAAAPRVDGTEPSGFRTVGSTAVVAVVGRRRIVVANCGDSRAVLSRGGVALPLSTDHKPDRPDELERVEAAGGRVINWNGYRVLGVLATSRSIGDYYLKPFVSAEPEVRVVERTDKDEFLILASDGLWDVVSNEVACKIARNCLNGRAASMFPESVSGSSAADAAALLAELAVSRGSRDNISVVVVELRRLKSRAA
Nature of the assay: pull-down.

B1: SAPK2-His (natural protein)
chain: MERYEVIKDIGSGNFGVAKLVRDVRTKELFAVKFIERGQKIDENVQREIMNHRSLRHPNIVRFKEVVLTPTHLAIVMEYAAGGELFERICSAGRFSEDEARFFFQQLISGVSYCHSMQICHRDLKLENTLLDGSIAPRLKICDFGYSKSSLLHSQPKSTVGTPAYIAPEVLARKEYDGKVADVWSCGVTLYVMLVGAYPFEDPDEPRNFRKTITRILSVQYMVPDYVRVSMECRHLLSRIFVANPEQRITIPEIKNHPWFLKNLPIEMTDEYQMSVQMNDINTPSQGLEEIMAIIQEARKPGDGSKFSGQIPGLGSMELDDVDTDDIDVEDSGDFVCAL
As for B1, the binding result in assay [1] and in assay [2] was “binds” in each case.

(Values after publication PMC12627605 (Nature Communications, 2025).)
